B1: LysA (DAP decarboxylase) from strain A40-4 (Halomonas sp. A40-4) (protein)
chain: MDHFNDRDGLLFAEDVPLDRIAETYGTPCYVYSKATLTRHFRAYTEALGGHPHLICYAVKANSNLAVLGLLAKLGAGFDIVSVGELERVLKAGGDPDKVVFSGVAKQPHEMARALEVGIKCFNVESRPELERLNAVAGELGKMAPVSLRVNPDVDAGTHPYISTGLKDNKFGIPVDDALTVYELAASLPNLQVKGLDCHIGSQLTETAPFLDALERLLVLMERLRERGIEIDHLDLGGGLGVPYRDETPPHPFDYASQLLSRLSRWEGGEQLTLLFEPGRSIAANAGIMLTRVEFLKPGETKNFAIVDAAMNDLIRPALYQAWQAIVPVDTRSARETSIYDVVGPVCETGDFLGQERELAIAAGDLLAVRSAGAYGFVMASNYNSRPRPAEVMVDGERCHLVRARETLESLWSGEALLPEGGC
notes: lysA complementation fragment 1,272 bp
B2: LysA (DAP decarboxylase) from strain A40-3 (Thalassospira sp. A40-3) (protein)
chain: MNHFEYINSELYAEGVSIREMADKVGTPFFCYSTATLERHYKVYADAFDGLDATVCFAVKANSNQAVLKTLANLGAGADVVSVGEMRRALRAGMPPAKIIFSGVGKADAEMREALDADIAQINVESIPELVELNRVAIDMGKKARIALRVNPHVDAKTHEKIATGKAENKFGIDWTRAIEVYREAAAMDGIEVTGIAMHIGSQLTDLAPFREAFTRLAGLVEQLRSEGIDIRNLDLGGGLGIAYQGETPPLPDAYGQMVRETVGHLGCHITLEPGRLIAGNAGIMVSRVMYIKDGEAKRFVILDAAMNDLIRPTLYGAYHEIIPVDEQTDGDKQVKVDVVGPVCETGDTFGKDRDLPDDLKAGDLVAVMSAGAYGAVMSSTYNTRALTPEVLVKGNNFAIVRPRQEIDDLINMDLVPSWLSNA
notes: full length 423 residues

How the values were obtained:
[1] = substrate: NC(CCCC(N)C(=O)O)C(=O)O; test: initial rates, Lys production by amino acid analyzer; nonlinear Michaelis-Menten fit; assay type: biochemical, Halomonas sp. A40-4; conditions: 0 to 12 mM DAP, 200 mM Tris-HCl pH 8.0, PLP (100 mM [sic]), 25°C, DAP stereoisomer not given
Text: initial rates, Lys production by amino acid analyzer; nonlinear Michaelis-Menten fit on LysA (DAP decarboxylase) from strain A40-4

[2] = substrate: NC(CCCC(N)C(=O)O)C(=O)O; test: as above; assay type: biochemical, Thalassospira sp. A40-3; conditions: 0 to 12 mM DAP, 200 mM Tris-HCl pH 8.0, PLP (100 mM [sic]), 25°C, DAP stereoisomer not given
Text: initial rates, Lys production by amino acid analyzer; nonlinear Michaelis-Menten fit on LysA (DAP decarboxylase) from strain A40-3

| Protein | Km [1] [µM] | Vmax [1] [µmol/min/mg] | kcat [1] [s⁻¹] | Km [2] [µM] | Vmax [2] [µmol/min/mg] | kcat [2] [s⁻¹] |
| --- | --- | --- | --- | --- | --- | --- |
| B1 | 720 ± 140 | 58.3 | 41.6 ± 0.88 | – | – | – |
| B2 | – | – | – | 1890 ± 340 | 37.7 | 26.9 ± 2.42 |

Reference: article PMC9602339, “Diaminopimelic Acid Metabolism by Pseudomonadota in the Ocean” (Microbiology Spectrum, 2022)
